The values that follow come from publication doi:10.1101/2023.10.06.561239 (bioRxiv, 2023).

The target of the assay is T1, human DMC1, untagged, purified recombinant (human, UniProt Q14565 1-340).
T1 sequence (looked up): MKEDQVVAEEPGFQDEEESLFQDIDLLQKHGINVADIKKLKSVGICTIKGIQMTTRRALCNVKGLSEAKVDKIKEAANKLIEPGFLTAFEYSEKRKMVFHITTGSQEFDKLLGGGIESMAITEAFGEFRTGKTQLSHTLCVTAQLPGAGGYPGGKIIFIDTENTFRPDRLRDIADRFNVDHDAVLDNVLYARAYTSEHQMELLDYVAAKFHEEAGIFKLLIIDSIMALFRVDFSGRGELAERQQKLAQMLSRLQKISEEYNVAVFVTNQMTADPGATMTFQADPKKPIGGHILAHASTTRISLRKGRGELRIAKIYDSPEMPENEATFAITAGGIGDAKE
The assay can be described thus: pull-down.

B1: human his-GST-TEV-BRCA2 F2s3 (aa 2379-2433), wild type (domain or fragment, UniProt P51587 2379-2433, looked up)
chain: GHPFYQVSATRNEKMRHLITTGRPTKVFVPPFKTKSHFHRVEQCVRNINLEENRQ
For B1, the binding result is “binds”.
